To fix the notation:
B1: Mothers against decapentaplegic homolog 4 (Homo sapiens), Q13485 (parent)
chain: MDNMSITNTPTSNDACLSIVHSLMCHRQGGESETFAKRAIESLVKKLKEKKDELDSLITAITTNGAHPSKCVTIQRTLDGRLQVAGRKGFPHVIYARLWRWPDLHKNELKHVKYCQYAFDLKCDSVCVNPYHYERVVSPGIDLSGLTLQSNAPSSMMVKDEYVHDFEGQPSLSTEGHSIQTIQHPPSNRASTETYSTPALLAPSESNATSTANFPNIPVASTSQPASILGGSHSEGLLQIASGPQPGQQQNGFTGQPATYHHNSTTTWTGSRTAPYTPNLPHHQNGHLQHHPPMPPHPGHYWPVHNELAFQPPISNHPAPEYWCSIAYFEMDVQVGETFKVPSSCPIVTVDGYVDPSGGDRFCLGQLSNVHRTEAIERARLHIGKGVQLECKGEGDVWVRCLSDHAVFVQSYYLDREAGRAPGDAVHKIYPSAYIKVFDLRQCHRQMQQQAATAQAAAAAQAAAVAGNIPGPGSVGGIAPAISLSAAAGIGVDDLRRLCILRMSFVKGWGPDYPRQSIKETPCWIEIHLHRALQLLDEVLHTMPIADPQPLD
partner: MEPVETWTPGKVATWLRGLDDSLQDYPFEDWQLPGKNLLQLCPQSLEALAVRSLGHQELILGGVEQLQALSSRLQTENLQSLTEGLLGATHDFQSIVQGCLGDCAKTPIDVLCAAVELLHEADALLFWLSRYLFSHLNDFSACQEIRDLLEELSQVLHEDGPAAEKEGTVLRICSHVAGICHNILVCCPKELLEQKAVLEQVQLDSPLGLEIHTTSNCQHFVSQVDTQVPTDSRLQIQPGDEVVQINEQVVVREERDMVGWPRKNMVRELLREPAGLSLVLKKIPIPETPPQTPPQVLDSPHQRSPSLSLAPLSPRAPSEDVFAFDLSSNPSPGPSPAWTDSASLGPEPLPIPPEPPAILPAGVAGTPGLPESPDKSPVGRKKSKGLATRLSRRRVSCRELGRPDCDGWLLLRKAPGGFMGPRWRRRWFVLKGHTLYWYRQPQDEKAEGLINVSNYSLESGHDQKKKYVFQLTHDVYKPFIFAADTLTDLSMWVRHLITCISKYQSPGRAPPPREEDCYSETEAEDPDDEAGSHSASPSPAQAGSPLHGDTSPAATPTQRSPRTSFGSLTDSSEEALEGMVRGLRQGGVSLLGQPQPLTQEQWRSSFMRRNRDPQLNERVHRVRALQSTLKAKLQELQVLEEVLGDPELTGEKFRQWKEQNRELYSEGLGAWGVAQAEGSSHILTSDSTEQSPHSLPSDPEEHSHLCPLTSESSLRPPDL
B2: Mothers against decapentaplegic homolog 4 (Homo sapiens), Q13485 (parent)
chain: B1 chain
partner: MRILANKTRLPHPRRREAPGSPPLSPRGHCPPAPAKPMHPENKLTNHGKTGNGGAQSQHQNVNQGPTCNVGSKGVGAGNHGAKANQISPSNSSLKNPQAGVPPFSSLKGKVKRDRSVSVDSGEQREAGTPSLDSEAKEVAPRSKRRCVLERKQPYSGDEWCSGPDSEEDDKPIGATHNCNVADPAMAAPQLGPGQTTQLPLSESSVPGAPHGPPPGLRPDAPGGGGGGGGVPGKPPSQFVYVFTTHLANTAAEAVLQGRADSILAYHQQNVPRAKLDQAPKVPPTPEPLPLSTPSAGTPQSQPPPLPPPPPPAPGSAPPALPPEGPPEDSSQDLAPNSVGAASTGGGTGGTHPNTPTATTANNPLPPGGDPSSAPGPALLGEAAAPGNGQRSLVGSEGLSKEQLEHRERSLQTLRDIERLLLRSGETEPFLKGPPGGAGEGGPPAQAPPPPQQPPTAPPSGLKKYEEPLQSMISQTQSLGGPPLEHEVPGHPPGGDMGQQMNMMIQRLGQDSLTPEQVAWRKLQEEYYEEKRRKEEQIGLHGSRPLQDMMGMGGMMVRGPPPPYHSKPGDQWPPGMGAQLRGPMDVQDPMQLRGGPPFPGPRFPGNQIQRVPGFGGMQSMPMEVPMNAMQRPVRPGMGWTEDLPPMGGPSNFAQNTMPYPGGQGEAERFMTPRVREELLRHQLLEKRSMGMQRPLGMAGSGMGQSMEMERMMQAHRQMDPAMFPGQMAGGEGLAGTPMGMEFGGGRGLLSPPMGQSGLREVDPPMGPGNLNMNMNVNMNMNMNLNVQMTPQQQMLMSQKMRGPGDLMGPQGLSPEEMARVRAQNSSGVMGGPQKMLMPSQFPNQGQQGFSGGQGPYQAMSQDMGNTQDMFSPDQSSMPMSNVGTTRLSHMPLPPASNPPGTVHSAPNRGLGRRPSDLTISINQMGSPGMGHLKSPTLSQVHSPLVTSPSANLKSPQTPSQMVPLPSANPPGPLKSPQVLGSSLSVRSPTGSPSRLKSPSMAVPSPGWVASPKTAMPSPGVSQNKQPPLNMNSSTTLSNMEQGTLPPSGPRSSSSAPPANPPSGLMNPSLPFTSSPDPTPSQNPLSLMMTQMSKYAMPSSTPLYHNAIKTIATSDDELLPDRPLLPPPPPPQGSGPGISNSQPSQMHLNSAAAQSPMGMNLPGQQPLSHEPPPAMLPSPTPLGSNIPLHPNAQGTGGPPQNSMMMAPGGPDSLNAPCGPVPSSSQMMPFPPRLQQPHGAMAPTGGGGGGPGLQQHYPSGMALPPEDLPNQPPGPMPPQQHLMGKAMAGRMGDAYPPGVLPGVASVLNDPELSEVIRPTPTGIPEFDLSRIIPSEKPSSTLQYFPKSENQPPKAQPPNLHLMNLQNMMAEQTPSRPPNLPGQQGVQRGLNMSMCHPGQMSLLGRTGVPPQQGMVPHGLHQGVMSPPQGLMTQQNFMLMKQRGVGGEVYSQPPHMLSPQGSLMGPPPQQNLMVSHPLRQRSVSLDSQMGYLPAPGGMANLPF
B3: Mothers against decapentaplegic homolog 4 (Homo sapiens), Q13485 (parent)
chain: B1 chain
partner: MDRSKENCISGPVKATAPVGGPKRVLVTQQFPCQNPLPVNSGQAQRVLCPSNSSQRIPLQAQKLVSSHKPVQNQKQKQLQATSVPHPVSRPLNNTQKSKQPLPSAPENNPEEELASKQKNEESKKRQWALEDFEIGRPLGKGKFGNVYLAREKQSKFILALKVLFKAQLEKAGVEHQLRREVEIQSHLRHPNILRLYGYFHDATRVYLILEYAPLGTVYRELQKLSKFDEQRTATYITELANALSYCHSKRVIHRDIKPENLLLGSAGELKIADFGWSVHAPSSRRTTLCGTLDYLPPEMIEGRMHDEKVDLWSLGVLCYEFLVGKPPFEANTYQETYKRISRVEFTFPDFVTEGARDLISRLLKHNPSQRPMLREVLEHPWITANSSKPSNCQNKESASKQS

In one assay the parent is B1. To be noted: with cnkr1_human CNKSR1, Q969H4.
As to G386D, the “effect of a mutation on the interaction” value was “with no effect”.

In another assay the parent is B1. Conditions: with cnkr1_human CNKSR1, Q969H4. The source holds these as a separate data set.
R361H: the “effect of a mutation on the interaction” value is “with no effect”.

Another assay covers variants of B1. Conditions: with cnkr1_human CNKSR1, Q969H4. This is another data set of the same source.
Regarding R361C, the “effect of a mutation on the interaction” value is “with no effect”.

Variants of B1 are the subject of a further assay. Conditions: with cnkr1_human CNKSR1, Q969H4. This is another data set of the same source.
D351H: the “effect of a mutation on the interaction” value is “with no effect”.

The variants in another assay derive from B2. Conditions: with bcl9l_human BCL9L.
Turning to G386D, the “effect of a mutation on the interaction” value is reported as “with no effect”.

The variants in a further assay derive from B2. To be noted: with bcl9l_human BCL9L. This is another data set of the same source.
With R361H, the “effect of a mutation on the interaction” value was “with no effect”.

The next assay covers variants of B2. To be noted: with bcl9l_human BCL9L. The source holds these as a separate data set.
Regarding R361C, the “effect of a mutation on the interaction” value was “with no effect”.

The variants in a further assay derive from B2. To be noted: with bcl9l_human BCL9L. The source holds these as a separate data set.
For D351H, the “effect of a mutation on the interaction” value is “with no effect”.

In another assay the parent is B3. To be noted: with aurka_human AURKA.
Take R361H: the “effect of a mutation on the interaction” value is “with no effect”.

In another assay the parent is B3. To be noted: with aurka_human AURKA. The source holds these as a separate data set.
Turning to R361C, the “effect of a mutation on the interaction” value was “with no effect”.

The next assay covers variants of B3. To be noted: with aurka_human AURKA. This is another data set of the same source.
As to G386D, the “effect of a mutation on the interaction” value is recorded as “with no effect”.

Variants of B3 are the subject of a further assay. To be noted: with aurka_human AURKA. This is another data set of the same source.
For D351H, the “effect of a mutation on the interaction” value is “with no effect”.

Values taken from IntAct's records for PubMed 35512704.
